Data from patent publication US20220081485A1 (BEIJING WISDOMAB BIOTECHNOLOGY, published 2022).

T1: human IL-4R on cells (HEK-Blue IL-4/IL-13 cells, TF-1 cells, human PBMCs) (human, UniProt P24394 26-825)
T1 sequence (looked up): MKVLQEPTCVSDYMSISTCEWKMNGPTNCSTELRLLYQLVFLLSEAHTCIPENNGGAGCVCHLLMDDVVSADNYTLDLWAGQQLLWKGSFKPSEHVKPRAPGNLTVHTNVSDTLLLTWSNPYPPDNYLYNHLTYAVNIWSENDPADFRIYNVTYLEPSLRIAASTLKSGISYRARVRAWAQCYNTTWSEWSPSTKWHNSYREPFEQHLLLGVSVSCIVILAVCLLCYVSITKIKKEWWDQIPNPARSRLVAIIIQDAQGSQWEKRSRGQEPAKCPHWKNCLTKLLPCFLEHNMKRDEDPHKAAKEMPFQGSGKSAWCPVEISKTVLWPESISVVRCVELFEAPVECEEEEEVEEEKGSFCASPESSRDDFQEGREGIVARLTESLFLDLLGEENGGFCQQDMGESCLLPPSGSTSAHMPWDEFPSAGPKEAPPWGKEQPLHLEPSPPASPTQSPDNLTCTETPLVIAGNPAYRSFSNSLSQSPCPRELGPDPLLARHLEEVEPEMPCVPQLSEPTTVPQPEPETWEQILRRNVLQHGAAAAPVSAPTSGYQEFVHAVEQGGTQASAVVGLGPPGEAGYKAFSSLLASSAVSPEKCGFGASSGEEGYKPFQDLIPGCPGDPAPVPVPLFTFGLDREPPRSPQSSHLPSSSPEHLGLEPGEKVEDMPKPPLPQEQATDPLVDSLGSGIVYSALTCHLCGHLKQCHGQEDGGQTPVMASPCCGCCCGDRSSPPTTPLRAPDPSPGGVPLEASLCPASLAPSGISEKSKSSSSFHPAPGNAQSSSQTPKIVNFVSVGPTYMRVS

T2: recombinant hIL4R-his (human IL-4R extracellular domain with C-terminal His tag) (human (Homo sapiens), UniProt P24394 26-232)
T2 construct: The tag was added at the C-terminus; The protein was expressed in HEK293 cells; also called huIL4R
T2 sequence: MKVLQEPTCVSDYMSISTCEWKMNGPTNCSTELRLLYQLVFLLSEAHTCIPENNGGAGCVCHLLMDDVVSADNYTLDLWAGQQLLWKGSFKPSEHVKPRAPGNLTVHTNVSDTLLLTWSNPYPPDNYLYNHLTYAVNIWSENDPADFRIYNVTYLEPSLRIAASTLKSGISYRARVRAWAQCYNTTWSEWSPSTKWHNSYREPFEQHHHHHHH

T3: mmIL4R-mFc (Macaca mulatta IL-4R extracellular domain fused to murine IgG2a Fc) (Macaca mulatta)
T3 chain: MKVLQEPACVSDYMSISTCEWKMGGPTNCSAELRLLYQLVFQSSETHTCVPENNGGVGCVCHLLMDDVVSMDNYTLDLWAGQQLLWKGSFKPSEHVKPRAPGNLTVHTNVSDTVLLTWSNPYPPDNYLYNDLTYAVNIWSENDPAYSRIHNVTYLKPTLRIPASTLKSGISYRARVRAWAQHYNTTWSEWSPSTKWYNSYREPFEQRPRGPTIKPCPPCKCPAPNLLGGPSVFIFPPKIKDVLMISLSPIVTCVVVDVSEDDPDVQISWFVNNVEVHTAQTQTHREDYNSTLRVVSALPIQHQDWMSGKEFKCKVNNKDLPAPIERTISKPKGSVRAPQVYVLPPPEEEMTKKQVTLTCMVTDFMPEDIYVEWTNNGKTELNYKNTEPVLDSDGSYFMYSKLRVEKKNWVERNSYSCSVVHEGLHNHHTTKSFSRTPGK


Key:
[1] = target: T1, human IL-4R on cells (HEK-Blue …); assay: cell-based or functional assay
[2] = target: T2, recombinant hIL4R-his (human IL-4R …); assay: SPR Biacore X100, antibody captured by anti-human Fc, IL4R-his as analyte, 25 C
Protocol: (§1) The affinity of each anti-IL4R IgG4 chimeric antibody was determined using Biacore X100. Amino coupling kits, human antibody capture kits, CM5 chips, 1× HBS-EP (pH 7.4) and all reagents used in this assay were purchased from GE Healthcare. According to the instructions in the kits, an antibody against the human Fc region was coupled to the surface of the CM5 chip using an amino coupling method, and antibody proteins were diluted to appropriate concentrations to ensure that about 100 RU of the antibodies was captured by the antibody against the human Fc. IL4R-his was set to a series of concentration gradients (100 nm, 33.3 nm, 11.1 nm, 3.7 nm, 1.23 nm) and flew through the surface of the stationary phase.

[3] = target: T1, human IL-4R on cells (HEK-Blue …); assay: cell-based or functional assay; remark: listed apart in the source
[4] = target: T3, mmIL4R-mFc (Macaca mulatta IL-4R …); assay: SPR Biacore X100, antibody captured, mmIL4R-mFc as analyte
Protocol: as §1
Similarly, anti-IL4R monoclonal antibodies were captured and mmIL4R-mFc was set to a series of concentration gradient (50 nm, 16.7 nm, 5.56 nm, […], 0.62 nm).

[5] = target: T4, IL4R-mFc (human IL-4R extracellular domain fused to murine IgG2a Fc) (human (Homo sapiens)); assay: blocking ELISA: antibody gradient with IL4-his at a fixed concentration on coated IL4R-mFc; bound IL4-his detected with HRP-mouse-anti-his IgG
T4 construct: also called antigen IL4R-mFc
Protocol: 96 well plates were coated with antigen IL4R-mFc (3 μg/ml, 100 μI/well) overnight at 4° C.

[6] = target: T1, human IL-4R on cells (HEK-Blue …); assay: cell-based or functional assay; remark: listed apart in the source
[7] = target: T1, human IL-4R on cells (HEK-Blue …); assay: cell-based or functional assay; remark: listed apart in the source
[8] = target: T1, human IL-4R on cells (HEK-Blue …); assay: cell-based or functional assay; remark: listed apart in the source

T4 sequence (chain, as listed by the source): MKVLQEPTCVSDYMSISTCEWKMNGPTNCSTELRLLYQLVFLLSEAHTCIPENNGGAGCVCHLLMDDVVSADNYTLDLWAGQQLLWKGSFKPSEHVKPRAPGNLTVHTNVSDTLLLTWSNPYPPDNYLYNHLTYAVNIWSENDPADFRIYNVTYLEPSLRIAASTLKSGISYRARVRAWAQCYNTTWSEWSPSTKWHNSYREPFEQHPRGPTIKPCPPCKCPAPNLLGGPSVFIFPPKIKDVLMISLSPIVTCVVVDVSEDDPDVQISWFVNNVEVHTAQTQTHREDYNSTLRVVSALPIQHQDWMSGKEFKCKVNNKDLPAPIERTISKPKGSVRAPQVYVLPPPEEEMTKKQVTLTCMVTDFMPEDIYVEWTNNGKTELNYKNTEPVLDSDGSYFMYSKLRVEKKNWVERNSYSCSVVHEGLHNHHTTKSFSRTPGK

| IC50 values in inhibition of IL-4 (SEAP, HEK-Blue IL-4/IL-13 cells) [1] [nM] | Kd [2] [nM] | koff [2] [s⁻¹] | kon [2] [M⁻¹ s⁻¹] | IC50 values in inhibition of IL-13 (SEAP, HEK-Blue IL-4/IL-13 cells) [3] [nM] | Kd [4] [nM] | koff [4] [s⁻¹] | kon [4] [M⁻¹ s⁻¹] | IC50 (read off the curve) [5] [nM] | IC50 values in inhibition of IL-4 (IL-4 induced proliferation of TF-1 cells, CellTiter-Glo) [6] [nM] | IC50 values in inhibition of CD23 expression on human PBMCs (IL-4 stimulated, flow cytometry) [7] [nM] | fold of IC50 in inhibition of IL-4 induced CD23 expression on PBMCs against L18D7 [8] [fold] | Binder |
| --- | --- | --- | --- | --- | --- | --- | --- | --- | --- | --- | --- | --- |
| 0.0484 | 0.48 | 0.000143 | 297000 | 0.0102 | 1.67 | 0.000984 | 590000 | ~10 | 0.116 | 0.0268 |  | L18D7-IgG4 (antibody, V domains shown, also called S1E6 light chain mutant L18D7) VH: EVQLVESGGGLVQPGGSLRLSCAVSGFTFSSYAMSWVRQAPGKGLEWVSSITGGGGGIYYADSVKGRFTISRDNSKNTVYLQMNSLRAEDTAVYYCAKDRISITIRPRYFGLDFWGQGTTVTVSS VL: DIVMTQSPLSLPVTPGEPASISCRSSQSLLYSIGYNYLDWYLQKSGQSPQLLIYLGSNRASGVPDRFSGSGSGTDFTLKISRVEAEDVGFYYCMQSFKAPYTFGQGTKLEIKR |
| 0.0494 | 0.586 | 0.000194 | 331000 | 0.0121 | 8.4 | 0.00594 | 706000 | ~4 | 0.129 | 0.0635 | 2.3 | L28C9-IgG4 (antibody, V domains shown, also called S1E6 light chain mutant L28C9) VH: EVQLVESGGGLVQPGGSLRLSCAVSGFTFSSYAMSWVRQAPGKGLEWVSSITGGGGGIYYADSVKGRFTISRDNSKNTVYLQMNSLRAEDTAVYYCAKDRISITIRPRYFGLDFWGQGTTVTVSS VL: DIVMTQSPLSLPVTPGEPASISCRSSQNVVYGNGYNYLDWYLQKSGQSPQLLIYLGNNVAAGVPDRFSGSGSGTDFTLKISRVEAEDVGFYYCMQSLKAPYTFGQGTKLEIKR |
